Experimental data reported in doi:10.1101/2025.02.09.637349 (bioRxiv, 2025).

Molecular target: the molecule itself
Test: cryo-EM structure

B1: Thermochromatium tepidum form-IAq RuBisCO large subunit (RbcL) (natural protein, UniProt A0A6I6DX30 1-472, looked up)
chain: MAKTYSAGVKEYRETYWMPNYTPKDTDILACFKITPQPGVPREEAAAAVAAESSTGTWTTVWTDLLTDLDYYKGRAYAIEDVPGDDTCFYAFIAYPIDLFEEGSVVNVFTSLVGNVFGFKAVRALRLEDVRFPIAYVMTCNGPPHGIQVERDILNKYGRPLLGCTIKPKLGLSAKNYGRAVYECLRGGLDFTKDDENVNSQPFMRWRQRFDFVMEAIDKAERETGERKGHYLNVTAPTPEEMYKRAEYAKEIGAPIIMHDYITGGFCANTGLAQWCRNNGVLLHIHRAMHAVLDRNPHHGIHFRVLTKILRLSGGDHLHTGTVVGKLEGDRQATLGWIDLLRESYVKEDRSRGIFFDQDWGAMPGAFAVASGGIHVWHMPALVTIFGDDSVLQFGGGTLGHPWGNAAGACANRVALEACIEARNQGIPIEKEGKEVLTKAAAHSPELKIAMETWKEIKFEFDSVDKLDVAHK
**Q.** Which “stoichiometry N” value does the source give for B1 here?
**A.** 8
